According to article PMC7505961:
Blank lines part the entries; values can stand above or below the substance they belong to.

What was measured:
cGAS (human) = assay: EMSA; settings: 5 mM Mg2+, 20 mM Tris-HCl pH 7.6, 60 mM NaCl, 5 mM MgCl2, 10 ul, 30 min on ice, 80 nM (145/185) or 10 nM (2450/oligo) substrate, 1.5% agarose, 0.2x TBE
[1] = biological target: 145-nucleosome ("601" nucleosome core particle: 145 bp Widom 601 DNA with recombinant histone octamer); assay: native gel or EMSA; FAM-labelled nucleosome (0.8 pmol; oligonucleosomes 0.1 pmol) mixed with different amounts of cGAS in 20 mM Tris-HCl pH 7.6, 60 mM NaCl, 5 mM MgCl2, total volume 10 ul; on ice 30 min; 1.5% agarose gel, 0.2x TBE; Kd from percent bound nucleosome against cGAS concentration
[2] = biological target: 185-nucleosome (185 bp dsDNA, Widom 601 extended by 20 bp on both ends, with recombinant histone octamer); assay: as above
[3] = biological target: Oligonucleosomes (2,450 bp dsDNA reconstituted with recombinant histone octamers); assay: as above
[4] = biological target: 145-nucleosome ("601" nucleosome core particle: 145 bp Widom 601 DNA with recombinant histone octamer)
[5] = biological target: 185-nucleosome (185 bp dsDNA, Widom 601 extended by 20 bp on both ends, with recombinant histone octamer)

Substance: 145-tailless nucleosome
- Kd (cGAS (human); tailless histones: H4 del1-20, H3 del1-37, H2A del1-15, H2B del1-31): 79 nM

Substance: 185-dsDNA
- Kd (cGAS (human)): 394 nM

- Kd [1]: 67 nM
- Kd [2]: 172 nM
- Kd [3]: 66 nM
- amount of cGAMP after 3 h incubation with cGAS, ATP and GTP (UPLC-MS/MS), against that induced by dsDNA (% of that induced by dsDNA) [4]: 15
- initial velocity of cGAMP generation in vitro (UPLC-MS/MS; 2 uM cGAS, ATP, GTP, 37 °C), against that induced by 145-dsDNA (ratio to 145-dsDNA) [4]: 0.1
- amount of cGAMP after 3 h incubation with cGAS, ATP and GTP (UPLC-MS/MS), against that induced by dsDNA (% of that induced by dsDNA) [5]: 15
Substance: human cGAS (cGMP-AMP synthase) (from UniProt Q8N884 1-522) (enzyme)

Substance: 2,450-dsDNA
- Kd (cGAS (human)): 68 nM

Substance: 145-nucleosome
- Kd (cGAS (human)): 67 nM

Substance: 145-dsDNA
- Kd (cGAS (human)): 350 nM

Substance: 185-nucleosome
- Kd (cGAS (human)): 172 nM

Substance: Oligonucleosomes
- Kd (cGAS (human)): 66 nM
